# Source: patent US20200208162
# Key:
# [1] = test system: TLNmir604S3Fw TALEN (encoded by cTNmir604Fw3-01); assay: cell_activity; details: as pair with P2; maize NP2222 immature embryos, Chry5d2 delivery of TALEN and donor; 5.6-24.9% with other strain combinations; printed half-site ends in T …
# [2] = test system: TLNmir604S3Rv TALEN (encoded by cTNmir604Rv3-01); assay: cell_activity; details: as pair with P1; maize NP2222 immature embryos, Chry5d2 delivery of TALEN and donor; 5.6-24.9% with other strain combinations
Sequence,activity [1] [%],activity [2] [%]
TCCGTGCAGTGCAGTGT (double strand) [MIR604FR3 forward half-site],33.3,–
TCCTAAACAAAGGAGGT (double strand) [MIR604FR3 reverse half-site],–,33.3
